Results as given in patent US7553617B1, “Peptide library and screening systems” (Affymax, Inc., priority 1990, dated 2009).
Where no end group is shown, it is not given here.

Key:
[1] = target: 3E7 antibody; assay: Solution radioimmunoassay, inhibition of [125I]b-endorphin binding to mAb 3E7; conditions: for IC50: geometric mean, 30 pM [125I]b-endorphin, 20% tracer bound, 18 hr. incubation, 0.25 μg/ml 3E7; for Affinity Relative to YGGFL (SEQ ID NO: 125): relative to YGGFL = 1
Protocol: The peptides were synthesized according to well known protocols, as described in, for example, Merrifield, Science 232:341-347 (1986), incorporated by reference herein. A solution radioimmunoassay was used to estimate the binding affinities of peptides for mAb 3E7. Solution radioimmunoassay using [^125I]b-endorphin (20,000 cpm) and purified 3E7 antibody (0.25 μg/ml) was conducted as described by Meo et al., supra, with the exception that the final volume was 150 μl. Antibody-bound and free [^125I]b-endorphin were separated by addition of activated charcoal followed by centrifugation, as described in Ghazarassian et al., Life Sciences 27:75-86 (1980). Antibody-bound [^125I]b-endorphin in the supernatant was measured in a gamma counter. […] J. Physiol. 235:E97-E102 (1978).

[2] = test system: Monoclonal antibody 3E7; conditions: Meo et al., Herz et al., Gramsch et al.; cited from earlier work
[3] = target: Monoclonal antibody 3E7; assay: solution RIA, displacement of [125I]b-endorphin from mAb 3E7
[4] = target: Monoclonal antibody 3E7; assay: solution RIA, 30 pM tracer, 18 hr incubation
[5] = target: Monoclonal antibody 3E7; assay: binding experiments with mAb 3E7 and [3H]YGGFL, room temperature

YGGFL [Tyr-Gly-Gly-Phe-Leu, reference compound]
IC50 [1]: 7.1 nM | Affinity Relative to YGGFL (SEQ ID NO: 125) [1]: 1 | binding to antibody 3E7 [2]: binds tightly

YGGWAG [YGGWAG]
IC50 [1]: 7800 nM | Affinity Relative to YGGFL (SEQ ID NO: 125) [1]: 0.00091

GGF (peptide)
Affinity Relative to YGGFL [3]: < 7.1e-06

YAGFAQ [YAGFAQ]
IC50 [1]: 8300 nM | Affinity Relative to YGGFL (SEQ ID NO: 125) [1]: 0.00086

YGNWTY [YGNWTY]
IC50 [1]: 7800 nM | Affinity Relative to YGGFL (SEQ ID NO: 125) [1]: 0.00091

YGFWGM [YGFWGM]
IC50 [1]: 350 nM | Affinity Relative to YGGFL (SEQ ID NO: 125) [1]: 0.020

YGG (peptide)
Affinity Relative to YGGFL [3]: < 7.1e-06

YGPFWS [YGPFWS]
IC50 [1]: 1900 nM | Affinity Relative to YGGFL (SEQ ID NO: 125) [1]: 0.0037

YGGF [Tyr-Gly-Gly-Phe, reference compound]
IC50 [1]: 190 nM | Affinity Relative to YGGFL (SEQ ID NO: 125) [1]: 0.037

YGGFM: met-enkephalin, natural opioid peptide
binding to antibody 3E7 [2]: binds tightly

YGGFPD [YGGFPD]
IC50 [1]: 2300 nM | Affinity Relative to YGGFL (SEQ ID NO: 125) [1]: 0.0031

GFL (peptide)
Affinity Relative to YGGFL [3]: < 7.1e-06

[125I-tyr28]b-endorphin (from UniProt P01189 237-267) (peptide)
tracer bound [4]: 20%

B1: YGGF (peptide)
peptide: YGGF
Affinity Relative to YGGFL [3]: 0.037 | IC50 [3]: 190 nM

B2: GGFL (peptide)
peptide: GGFL
Affinity Relative to YGGFL [3]: < 7.1e-06

B3: YGFWGM (peptide)
peptide: YGFWGM
Affinity Relative to YGGFL [3]: 0.02 | IC50 [3]: 350 nM

B4: YGGFL (peptide)
peptide: YGGFL
Affinity Relative to YGGFL [3]: 1 | IC50 [3]: 7.1 nM | dissociation t1/2 [5]: 45 s

B5: YGPFWS (peptide)
peptide: YGPFWS
Affinity Relative to YGGFL [3]: 0.0037 | IC50 [3]: 1900 nM

B6: YGGFPD (peptide)
peptide: YGGFPD
Affinity Relative to YGGFL [3]: 0.0031 | IC50 [3]: 2300 nM

B7: YGGWAG (peptide)
peptide: YGGWAG
Affinity Relative to YGGFL [3]: 0.00091 | IC50 [3]: 7800 nM

B8: YGNWTY (peptide)
peptide: YGNWTY
Affinity Relative to YGGFL [3]: 0.00091 | IC50 [3]: 7800 nM

B9: YAGFAQ (peptide)
peptide: YAGFAQ
Affinity Relative to YGGFL [3]: 0.00086 | IC50 [3]: 8300 nM
